For the series, the target named is T1, SigW sigma4 domain (σW4) (Bacillus subtilis 168, UniProt Q45585 126-187).
T1 sequence: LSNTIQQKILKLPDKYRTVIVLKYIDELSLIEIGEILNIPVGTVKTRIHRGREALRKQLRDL
The series is described as follows: X-ray crystallography (3.1 Å); 1:1 complex, DNA mixed at 1.1:1; printed Kd 1.47e-8 M is computed from PISA ΔG, not measured, so not taken; Complex dialysed in 20 mM HEPES pH 7.5, 0.2 M NaCl, 5% glycerol; crystals from PEG1500 and isopropanol; temperature not stated. To be noted: protein: recombinant; tags: N-terminal 6xHis, removed with TEV protease; 5' overhang 1 nt at each end, 11 bp.

From article PMC6713349, “Structural analysis of the recognition of the -35 promoter element by SigW from Bacillus subtilis” come the findings set out here.

B1: -35W (SigW -35 promoter element) (dsDNA)
DNA 1: ATTGAAACCTTT
DNA 2: AAAAGGTTTCAA
With B1, the binding result is recorded as “binds”.
